According to article doi:10.1101/2021.05.27.445985:

Molecular target: Cy5-labeled human neutrophil peptide 1 (HNP1) (human)
Test: fluorescence polarisation

Bovine serum albumin (from UniProt P02769 25-607) (natural protein)
Kd: 3.4 µM
